Our source for the Kd and binding values is paper PMC9592637, “Functional characterization and transcriptional repression by Lacticaseibacillus paracasei DinJ-YafQ” (Applied Microbiology and Biotechnology, 2022).

Series [1] has as its system DinJ;YafQ_pa2333 (Lacticaseibacillus paracasei 4366;Lacticaseibacillus paracasei 2333). The series can be described thus: EMSA. As to conditions: EMSA: 2 nM DNA, 128 ng salmon sperm DNA in 10 uL, 50 mM Tris-HCl pH 7.5, 50 mM KCl, 5% glycerol, room temperature 10 min, 6% native PAGE in TBE; RNAP ….
The test system of series [2] is DinJ;YafQ_pa4366 (Lacticaseibacillus paracasei 4366;Lacticaseibacillus paracasei 4366). The series can be described thus: EMSA. As to conditions: EMSA: 2 nM DNA, 128 ng salmon sperm DNA in 10 uL, 50 mM Tris-HCl pH 7.5, 50 mM KCl, 5% glycerol, room temperature 10 min, 6% native PAGE in TBE; RNAP ….
Series [3] has as its system DinJ R13A (Lacticaseibacillus paracasei 4366). Briefly: EMSA. Conditions: complete loss of binding up to 1.5 uM; EMSA: 2 nM DNA, 128 ng salmon sperm DNA in 10 uL, 50 mM Tris-HCl pH 7.5, 50 mM KCl, 5% glycerol, room temperature 10 min, 6% native PAGE in TBE; RNAP ….
In series [4] the test system is T1, DinJ;YafQ_pa4366 (Lacticaseibacillus paracasei 4366;Lacticaseibacillus paracasei 4366), ORF:82b9b73a+ORF:f6e62217.
T1 sequence 1: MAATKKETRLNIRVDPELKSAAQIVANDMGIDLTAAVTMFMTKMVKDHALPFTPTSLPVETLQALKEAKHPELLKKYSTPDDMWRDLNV
T1 sequence 2: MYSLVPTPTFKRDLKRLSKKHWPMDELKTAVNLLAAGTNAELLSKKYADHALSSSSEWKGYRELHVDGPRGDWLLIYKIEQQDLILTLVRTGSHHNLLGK
Briefly: competition. As to conditions: EMSA: 2 nM DNA, 128 ng salmon sperm DNA in 10 uL, 50 mM Tris-HCl pH 7.5, 50 mM KCl, 5% glycerol, room temperature 10 min, 6% native PAGE in TBE; RNAP ….

pKd: −log10 of the molar value. Bounds are passed on as bounds.

As for 194-bp dinJ-yafQ promoter fragment, the figures for the pKd in series [1], in series [2] and in series [3] were 7.10, 7.36 and less than 5.82, respectively.

With “CGTCCTCAAGCTGCTCTTGTGTTAATGGTTTCTTTTTTGTGCTCATACGTTAAATCTATCACCGCAAGGGATAAATATCTAACACCGTGCGTGTTGACTATTTTACCTCTGGCGGTGATAATGGTTGCATGTACTAAGGAGGTTGTATGGAACAACGCATAACCCTGAAAGATTATGCAATGCGCTTTGGGCAAAC (double strand) [196-bp lambda PR promoter fragment]”, the binding entry in series [4] is given as “no binding”.
